± gives the uncertainty stated by the source.
experiment: amyloid nucleation score (Sup35N fusion, yeast selection) (log enrichment); library NNK1; higher = more nucleation; inactive = no reads after selection
Summary of the method: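 Nucleation score is defined as the DiMSum log enrichment of output over input reads, with centring on the mode score of non-aggregating sequences. A minimum of 100 input reads was required for each sequence. Reads came from Illumina sequencing of plasmid inserts from psi-negative yeast expressing Sup35N fused to peptides of 20 random codons, induced with 100 μM copper sulfate for 24 hours and grown 7 days at 30°C on medium lacking adenine and uracil.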

First: GFRRGPVSSSV
Second: GFSKMLLAIVSIQDKGSWDA
The amyloid nucleation score of the first is lower: 0.206 ± 0.67 for the first, 2.41 ± 0.17 for the second.

GFSVLCRSRPQGSTGVQIRV and GFVILDSNPLRFNCFWVDAF are within error of each other in amyloid nucleation score: -0.788 ± 0.86 for the first, 0.325 ± 0.29 for the second.

Going from GFYDRYVNAGMECAGPSSQR to GGALSCVRDF, the amyloid nucleation score falls from 5.24 ± 0.079 to 1.39 ± 0.78.

Going from GGCRIYLSSRM to GGDGVKVVIGLHGWFASGYL, the amyloid nucleation score rises from -0.583 ± 0.46 to 1.24 ± 0.3.

Compared with GGDSQCVLTGFWYCSTWGKG, GGFWPICYWNLRASEPLQDS is lower in amyloid nucleation score: 6.438 ± 0.056 for the first, 0.173 ± 0.63 for the second.

GGGGNVGGFFMWCSVYSAGV and GGKAIIQCLEW are within error of each other in amyloid nucleation score: -0.105 ± 0.96 for the first, -0.362 ± 1.2 for the second.

GGKVGREQTIW and GGLGRYWTTHE are within error of each other in amyloid nucleation score: -0.123 ± 0.89 for the first, 0.436 ± 0.83 for the second.

GGLPGNRSYRGWSSIFACLR and GGQRWELLFLTRGPGRRWQG are within error of each other in amyloid nucleation score: 0.021 ± 0.49 for the first, 0.2 ± 1.2 for the second.

GGSLVSGSFDKYSYSKYRLW and GGTYPPLDISDFNW are within error of each other in amyloid nucleation score: -0.128 ± 1.4 for the first, -0.616 ± 0.27 for the second.

GHGALSCMMNFHSTGGKVKS and GHIDAQWPRFRCHMA are within error of each other in amyloid nucleation score: 0.667 ± 0.68 for the first, 0.147 ± 0.32 for the second.

GHNINFGVDCGTVGRFCNTW and GHSDFYTTPLKLCRGE are within error of each other in amyloid nucleation score: -0.54 ± 0.61 for the first, 0.634 ± 0.72 for the second.

GHWDTVGIR and GHYVDLKSLYPPMTCAMACM are within error of each other in amyloid nucleation score: -0.292 ± 0.28 for the first, -0.125 ± 0.38 for the second.

GIAAYNGDLWMRLCYL and GIAVHGMLDRMVSRRGLRAW are within error of each other in amyloid nucleation score: -0.255 ± 0.88 for the first, 0.387 ± 0.97 for the second.

GIFNYWRYYMVDV and GIGVKSEGHVINDFYKLRER are within error of each other in amyloid nucleation score: 0.673 ± 0.29 for the first, 0.002 ± 0.45 for the second.

GIKRHIEDCLV and GILDTLKVEVLGSVVHS are within error of each other in amyloid nucleation score: 1.04 ± 0.46 for the first, 1.01 ± 0.59 for the second.

GIPSKTFDVCSSPNIKSILF and GKENSVTGHRGYSDVAVGMQ are within error of each other in amyloid nucleation score: 0.317 ± 1.2 for the first, 0.286 ± 1.4 for the second.

Compared with GKFDSGYVKGTVHNEAEFQP, GKPLTTVVAIIF is higher in amyloid nucleation score: -0.223 ± 0.31 for the first, 3.56 ± 0.11 for the second.

First: GKSCGHFWGRLNEGGQKLRV
Second: GLALHGIEWVCCVQDQSFDR
The amyloid nucleation score of the first is lower: -0.772 ± 0.64 for the first, 7.08 ± 0.071 for the second.

GLGDVKNHEFNHVDAEGSGR and GLGWHFTL are within error of each other in amyloid nucleation score: -0.741 ± 0.83 for the first, -0.407 ± 0.28 for the second.

GLIMYPRGYMCKSIT and GLIQYPGFIASMYPSDNTSC are within error of each other in amyloid nucleation score: 0.813 ± 0.43 for the first, 0.135 ± 0.41 for the second.

First: GLKMFKMCLCNMALDIF
Second: GLLNTYS
The amyloid nucleation score of the first is higher: 7.428 ± 0.073 for the first, 0.626 ± 1.2 for the second.

GLLRAA and GLMVHRDFGIECLQHETHFG are within error of each other in amyloid nucleation score: 0.296 ± 0.27 for the first, 0.074 ± 0.26 for the second.

GLMWKAN and GLNALSFNQV are within error of each other in amyloid nucleation score: 0.537 ± 0.67 for the first, -0.383 ± 0.48 for the second.

GLPLYVHVAVEVIWL and GLQEVCWC are within error of each other in amyloid nucleation score: 0.058 ± 0.65 for the first, -1.67 ± 2.4 for the second.

GLRKYVKPVYSMCVFFLKWA and GLSIQ are within error of each other in amyloid nucleation score: 1.02 ± 0.58 for the first, 0.288 ± 0.44 for the second.

GLSWYCGHLAKR and GLVIELNPFKSLLSSPWVFF are within error of each other in amyloid nucleation score: 1.48 ± 0.49 for the first, 0.335 ± 0.71 for the second.

GLVNLADTGTVVDPSKGWLG and GLVSQPFWCSYKCGGHNHKG are within error of each other in amyloid nucleation score: -0.441 ± 0.61 for the first, 0.314 ± 1.4 for the second.

First: GLYLNGPVINMWVVVASREV
Second: GMAHDWSRQWVRVSDAVLLR
The amyloid nucleation score of the first is higher: 7.512 ± 0.044 for the first, -0.004 ± 0.6 for the second.

GMDLQVMSHCASIHNNS and GMVSIII are within error of each other in amyloid nucleation score: -0.199 ± 0.37 for the first, 0.276 ± 0.51 for the second.

GNCPNQIGAYVVKIIRMPAL and GNLRNMLMTYSSSVGNKLIF are within error of each other in amyloid nucleation score: -0.311 ± 0.55 for the first, -0.344 ± 0.57 for the second.

GNNRCDVIIMVFFK and GNSVIDRSFGIFNCYEGLSC are within error of each other in amyloid nucleation score: 1.7 ± 0.12 for the first, 1.62 ± 0.72 for the second.

GNVLDFCPWLVGLLCHGGGV and GNWLSS are within error of each other in amyloid nucleation score: 0.149 ± 0.35 for the first, -0.082 ± 0.9 for the second.

GPFSDVAGQKVRCGRLVATR and GPRVSPVKFIVRLGQVNLDR are within error of each other in amyloid nucleation score: -0.212 ± 0.66 for the first, 0.448 ± 0.61 for the second.

First: GQHSFGAECTVQSCGWGCRW
Second: GQRSLT
The amyloid nucleation score of the first is higher: 1.33 ± 0.34 for the first, -0.088 ± 0.24 for the second.

Compared with GRAFG, GREMYRLLHLNVEYTHGTRY is higher in amyloid nucleation score: -0.557 ± 2.1 for the first, 3.79 ± 0.075 for the second.

GRFFVHEVGMFQTSGQ and GRGHREPIVKDAAGRLGSWS are within error of each other in amyloid nucleation score: -0.187 ± 1.3 for the first, -0.421 ± 0.94 for the second.

GRGKPMTLASKFIAGRFVF and GRGTGAVFVYVEWSLYGN are within error of each other in amyloid nucleation score: 0.521 ± 0.97 for the first, -0.036 ± 0.47 for the second.

Going from GRLVVGIREGIIS to GRMAGMFWNCGGCMEMDSVC, the amyloid nucleation score rises from 0.058 ± 0.35 to 1.14 ± 0.68.

GRMLLM and GRQGYMAYFVMALLLCIFTH are within error of each other in amyloid nucleation score: -1.25 ± 1.1 for the first, 0.128 ± 0.48 for the second.

Compared with GRRGKWVSSPWGGELKTCSK, GRRVFGRYVQINNGPISRFF is lower in amyloid nucleation score: 4.24 ± 0.084 for the first, 0.266 ± 1.1 for the second.

GRSLAFTSYCLMKGLTSVSV and GRSRTRTRLLPGSEGGYDRP are within error of each other in amyloid nucleation score: -0.383 ± 0.29 for the first, -1.64 ± 0.98 for the second.

Going from GRTAQAVRGGRAVVYAGLKL to GRVKINKNLSVYKYINFRDS, the amyloid nucleation score rises from -0.157 ± 0.36 to 2.04 ± 0.21.

GRVQL and GSALIE are within error of each other in amyloid nucleation score: 0.405 ± 0.48 for the first, 1.5 ± 0.74 for the second.

GSCSYSYCTNFVRTMYGAYG and GSDVREWLVQQSKSMFLWVW are within error of each other in amyloid nucleation score: 0.379 ± 0.71 for the first, -0.226 ± 0.47 for the second.

GSEFQVLSFF and GSLIIHHQWFFVIAMRVSLS are the same in amyloid nucleation score: 0.419 ± 0.58 for the first, 0.419 ± 0.53 for the second.

GSRFPFLVVDMCSSELVKR and GSRHFRDSVLSDVNVWYLKN are within error of each other in amyloid nucleation score: 0.577 ± 0.63 for the first, -0.026 ± 0.35 for the second.

First: GSRSQCAPSQFLAAGTHNKF
Second: GSSKWISSHRVIDDFSYKRG
The amyloid nucleation score of the first is lower: -1.17 ± 0.84 for the first, 0.406 ± 0.49 for the second.

First: GTFALIN
Second: GTFDSN
The amyloid nucleation score of the first is lower: -1.2 ± 0.68 for the first, 0.045 ± 0.46 for the second.

First: GTFVEISRYIDGCHLVFGNR
Second: GTGHVFQCCRMTLLQSSLDG
The amyloid nucleation score of the first is higher: 2.38 ± 0.16 for the first, -0.832 ± 0.88 for the second.

GTKNLCDYIWPGPPGSVVRN and GTMTRWWFVVCTEKTAGTNR are within error of each other in amyloid nucleation score: -0.159 ± 0.56 for the first, 0.374 ± 0.44 for the second.

GTNWDMLCYIVLTYGVVRAF and GTTSVSAINGR are within error of each other in amyloid nucleation score: -0.116 ± 0.51 for the first, -0.545 ± 0.8 for the second.

GTTVPGFCITKSVKTMGRNQ and GVCFLAR are within error of each other in amyloid nucleation score: 0.643 ± 0.39 for the first, 0.707 ± 0.74 for the second.

Compared with GVCKTYSIDKAPI, GVCRLLGKVAMLV is lower in amyloid nucleation score: 0.823 ± 0.51 for the first, -2.1 ± 2.4 for the second.

Going from GVGDTNCSEL to GVGRRMSMWYVCDAGWEAWR, the amyloid nucleation score rises from 0.178 ± 0.33 to 3.16 ± 0.094.

Compared with GVRAVLFETWCRN, GVSMFHRFSSHNWMCCWFVG is higher in amyloid nucleation score: -0.693 ± 1 for the first, 7.654 ± 0.064 for the second.

GVTLYRRGIFGMSL and GVVLGYRCLNMGLKALWSYV are within error of each other in amyloid nucleation score: 0.338 ± 0.66 for the first, -0.248 ± 0.48 for the second.

GVWLVSDRKVADVRSNYCFD and GWFAR are within error of each other in amyloid nucleation score: -2.18 ± 2.7 for the first, -0.191 ± 0.57 for the second.

GWIGCHDWGLRLIAHKMRGR and GWRNGKCFDGASPEWVLGHA are within error of each other in amyloid nucleation score: 0.938 ± 0.88 for the first, -0.39 ± 1.2 for the second.

GWVLCRGSLFIWWFWTSLRL and GYACTFVLA are within error of each other in amyloid nucleation score: -0.106 ± 1.2 for the first, 0.136 ± 0.51 for the second.

GYCLVYLAIGGFARILGYPV and GYEHVKG are within error of each other in amyloid nucleation score: -0.461 ± 1.1 for the first, -0.195 ± 0.46 for the second.

Compared with GYFLPGFEMLCYNRRIWYIM, GYNGCYNIFVHRSDKMAALR is higher in amyloid nucleation score: -1.03 ± 0.61 for the first, 0.515 ± 0.59 for the second.

In the case of GYNKHLGNSGSYVHQNGAQF, the amyloid nucleation score is reported as 1.06 ± 0.39.

With GKSLLKSYCIRMPLFSRNTL the amyloid nucleation score was “inactive”.
In the case of GLPLNA, the amyloid nucleation score is reported as “inactive”.
In the case of GNRGSSKV, the amyloid nucleation score is reported as “inactive”.
For GRHRRSRRM, the amyloid nucleation score was “inactive”.
In the case of GSRNCIWLFFVVWV, the amyloid nucleation score is reported as “inactive”.
With GSSENRFF the amyloid nucleation score was “inactive”.
With GWLIR the amyloid nucleation score was “inactive”.

From the supplement of paper PMC12042874
